T1: human amylin 3(a) receptor (human calcitonin receptor co-expressed with RAMP-3) (human, UniProt P30988 25-474; O60896 24-148, limits assumed)
T1 sequence (looked up) 1: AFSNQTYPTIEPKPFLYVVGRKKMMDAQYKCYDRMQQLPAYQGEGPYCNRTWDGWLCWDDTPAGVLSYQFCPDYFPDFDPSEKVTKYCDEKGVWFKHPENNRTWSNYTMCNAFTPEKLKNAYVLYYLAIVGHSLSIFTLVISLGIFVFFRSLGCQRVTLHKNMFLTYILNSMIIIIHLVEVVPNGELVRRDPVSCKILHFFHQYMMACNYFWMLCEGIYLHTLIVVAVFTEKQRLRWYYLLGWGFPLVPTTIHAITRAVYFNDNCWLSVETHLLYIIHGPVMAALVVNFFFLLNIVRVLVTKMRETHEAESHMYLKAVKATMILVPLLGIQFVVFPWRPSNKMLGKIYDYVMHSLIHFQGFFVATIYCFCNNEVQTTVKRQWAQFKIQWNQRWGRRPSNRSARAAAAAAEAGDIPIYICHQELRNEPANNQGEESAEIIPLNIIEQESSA
T1 sequence (looked up) 2: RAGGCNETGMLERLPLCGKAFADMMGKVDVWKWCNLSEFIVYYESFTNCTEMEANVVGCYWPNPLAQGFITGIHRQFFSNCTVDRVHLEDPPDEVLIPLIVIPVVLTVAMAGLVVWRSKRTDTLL

B1: N^ε1-[2-[2-[2-[[(4S)-4-carboxy-4-(19-carboxynonadecanoylamino)butanoyl]amino]ethoxy]ethoxy]acetyl]-[Arg17,Pro21,Pro27,Pro31]-h-amylin (peptide)
peptide: K([AEEA-γGlu-C20 diacid])CNTATCATQRLANFLRHSSPNFGAIPSSTPVGSNTY-NH2
modifications: disulfide 2-7; N-terminus assumed
SMILES: CC[C@H](C)[C@H](NC(=O)[C@H](C)NC(=O)CNC(=O)[C@H](Cc1ccccc1)NC(=O)[C@H](CC(N)=O)NC(=O)[C@@H]1CCCN1C(=O)[C@H](CO)NC(=O)[C@H](CO)NC(=O)[C@H](Cc1c[nH]cn1)NC(=O)[C@H](CCCNC(=N)N)NC(=O)[C@H](CC(C)C)NC(=O)[C@H](Cc1ccccc1)NC(=O)[C@H](CC(N)=O)NC(=O)[C@H](C)NC(=O)[C@H](CC(C)C)NC(=O)[C@H](CCCNC(=N)N)NC(=O)[C@H](CCC(N)=O)NC(=O)[C@@H](NC(=O)[C@H](C)NC(=O)[C@@H]1CSSC[C@H](NC(=O)[C@@H](N)CCCCNC(=O)COCCOCCNC(=O)CC[C@H](NC(=O)CCCCCCCCCCCCCCCCCCC(=O)O)C(=O)O)C(=O)N[C@@H](CC(N)=O)C(=O)N[C@@H]([C@@H](C)O)C(=O)N[C@@H](C)C(=O)N[C@@H]([C@@H](C)O)C(=O)N1)[C@@H](C)O)C(=O)N1CCC[C@H]1C(=O)N[C@@H](CO)C(=O)N[C@@H](CO)C(=O)N[C@H](C(=O)N1CCC[C@H]1C(=O)N[C@H](C(=O)NCC(=O)N[C@@H](CO)C(=O)N[C@@H](CC(N)=O)C(=O)N[C@H](C(=O)N[C@@H](Cc1ccc(O)cc1)C(N)=O)[C@@H](C)O)C(C)C)[C@@H](C)O
notes: also called compound 49
B2: N^ε1-[2-[2-[2-[[(4S)-4-carboxy-4-(19-carboxynonadecanoylamino)butanoyl]amino]ethoxy]ethoxy]acetyl]-[Arg17,Pro21,Pro27,Pro34]-h-amylin (peptide)
peptide: K([AEEA-γGlu-C20 diacid])CNTATCATQRLANFLRHSSPNFGAIPSSTNVGPNTY-NH2
modifications: disulfide 2-7; N-terminus assumed
SMILES: CC[C@H](C)[C@H](NC(=O)[C@H](C)NC(=O)CNC(=O)[C@H](Cc1ccccc1)NC(=O)[C@H](CC(N)=O)NC(=O)[C@@H]1CCCN1C(=O)[C@H](CO)NC(=O)[C@H](CO)NC(=O)[C@H](Cc1c[nH]cn1)NC(=O)[C@H](CCCNC(=N)N)NC(=O)[C@H](CC(C)C)NC(=O)[C@H](Cc1ccccc1)NC(=O)[C@H](CC(N)=O)NC(=O)[C@H](C)NC(=O)[C@H](CC(C)C)NC(=O)[C@H](CCCNC(=N)N)NC(=O)[C@H](CCC(N)=O)NC(=O)[C@@H](NC(=O)[C@H](C)NC(=O)[C@@H]1CSSC[C@H](NC(=O)[C@@H](N)CCCCNC(=O)COCCOCCNC(=O)CC[C@H](NC(=O)CCCCCCCCCCCCCCCCCCC(=O)O)C(=O)O)C(=O)N[C@@H](CC(N)=O)C(=O)N[C@@H]([C@@H](C)O)C(=O)N[C@@H](C)C(=O)N[C@@H]([C@@H](C)O)C(=O)N1)[C@@H](C)O)C(=O)N1CCC[C@H]1C(=O)N[C@@H](CO)C(=O)N[C@@H](CO)C(=O)N[C@H](C(=O)N[C@@H](CC(N)=O)C(=O)N[C@H](C(=O)NCC(=O)N1CCC[C@H]1C(=O)N[C@@H](CC(N)=O)C(=O)N[C@H](C(=O)N[C@@H](Cc1ccc(O)cc1)C(N)=O)[C@@H](C)O)C(C)C)[C@@H](C)O
notes: also called compound 50
B3: N^ε1-[2-[2-[2-[[(4S)-4-carboxy-4-(19-carboxynonadecanoylamino)butanoyl]amino]ethoxy]ethoxy]acetyl]-[His14,Arg17,Pro21,Pro27,Arg34]-h-amylin (peptide)
peptide: K([AEEA-γGlu-C20 diacid])CNTATCATQRLAHFLRHSSPNFGAIPSSTNVGRNTY-NH2
modifications: disulfide 2-7; N-terminus assumed
SMILES: CC[C@H](C)[C@H](NC(=O)[C@H](C)NC(=O)CNC(=O)[C@H](Cc1ccccc1)NC(=O)[C@H](CC(N)=O)NC(=O)[C@@H]1CCCN1C(=O)[C@H](CO)NC(=O)[C@H](CO)NC(=O)[C@H](Cc1c[nH]cn1)NC(=O)[C@H](CCCNC(=N)N)NC(=O)[C@H](CC(C)C)NC(=O)[C@H](Cc1ccccc1)NC(=O)[C@H](Cc1c[nH]cn1)NC(=O)[C@H](C)NC(=O)[C@H](CC(C)C)NC(=O)[C@H](CCCNC(=N)N)NC(=O)[C@H](CCC(N)=O)NC(=O)[C@@H](NC(=O)[C@H](C)NC(=O)[C@@H]1CSSC[C@H](NC(=O)[C@@H](N)CCCCNC(=O)COCCOCCNC(=O)CC[C@H](NC(=O)CCCCCCCCCCCCCCCCCCC(=O)O)C(=O)O)C(=O)N[C@@H](CC(N)=O)C(=O)N[C@@H]([C@@H](C)O)C(=O)N[C@@H](C)C(=O)N[C@@H]([C@@H](C)O)C(=O)N1)[C@@H](C)O)C(=O)N1CCC[C@H]1C(=O)N[C@@H](CO)C(=O)N[C@@H](CO)C(=O)N[C@H](C(=O)N[C@@H](CC(N)=O)C(=O)N[C@H](C(=O)NCC(=O)N[C@@H](CCCNC(=N)N)C(=O)N[C@@H](CC(N)=O)C(=O)N[C@H](C(=O)N[C@@H](Cc1ccc(O)cc1)C(N)=O)[C@@H](C)O)C(C)C)[C@@H](C)O
notes: also called compound 84
B4: N^ε1-[2-[2-[2-[[(4S)-4-carboxy-4-(19-carboxynonadecanoylamino)butanoyl]amino]ethoxy]ethoxy]acetyl]-[Lys14,Arg17,Pro21,Pro27,Pro31]-h-amylin (peptide)
peptide: K([AEEA-γGlu-C20 diacid])CNTATCATQRLAKFLRHSSPNFGAIPSSTPVGSNTY-NH2
modifications: disulfide 2-7; N-terminus assumed
SMILES: CC[C@H](C)[C@H](NC(=O)[C@H](C)NC(=O)CNC(=O)[C@H](Cc1ccccc1)NC(=O)[C@H](CC(N)=O)NC(=O)[C@@H]1CCCN1C(=O)[C@H](CO)NC(=O)[C@H](CO)NC(=O)[C@H](Cc1c[nH]cn1)NC(=O)[C@H](CCCNC(=N)N)NC(=O)[C@H](CC(C)C)NC(=O)[C@H](Cc1ccccc1)NC(=O)[C@H](CCCCN)NC(=O)[C@H](C)NC(=O)[C@H](CC(C)C)NC(=O)[C@H](CCCNC(=N)N)NC(=O)[C@H](CCC(N)=O)NC(=O)[C@@H](NC(=O)[C@H](C)NC(=O)[C@@H]1CSSC[C@H](NC(=O)[C@@H](N)CCCCNC(=O)COCCOCCNC(=O)CC[C@H](NC(=O)CCCCCCCCCCCCCCCCCCC(=O)O)C(=O)O)C(=O)N[C@@H](CC(N)=O)C(=O)N[C@@H]([C@@H](C)O)C(=O)N[C@@H](C)C(=O)N[C@@H]([C@@H](C)O)C(=O)N1)[C@@H](C)O)C(=O)N1CCC[C@H]1C(=O)N[C@@H](CO)C(=O)N[C@@H](CO)C(=O)N[C@H](C(=O)N1CCC[C@H]1C(=O)N[C@H](C(=O)NCC(=O)N[C@@H](CO)C(=O)N[C@@H](CC(N)=O)C(=O)N[C@H](C(=O)N[C@@H](Cc1ccc(O)cc1)C(N)=O)[C@@H](C)O)C(C)C)[C@@H](C)O
notes: also called compound 74
B5: N^ε1-[2-[2-[2-[[(4S)-4-carboxy-4-(19-carboxynonadecanoylamino)butanoyl]amino]ethoxy]ethoxy]acetyl]-[His14,Arg17,Pro21,Pro27,Pro34]-h-amylin (peptide)
peptide: K([AEEA-γGlu-C20 diacid])CNTATCATQRLAHFLRHSSPNFGAIPSSTNVGPNTY-NH2
modifications: disulfide 2-7; N-terminus assumed
SMILES: CC[C@H](C)[C@H](NC(=O)[C@H](C)NC(=O)CNC(=O)[C@H](Cc1ccccc1)NC(=O)[C@H](CC(N)=O)NC(=O)[C@@H]1CCCN1C(=O)[C@H](CO)NC(=O)[C@H](CO)NC(=O)[C@H](Cc1c[nH]cn1)NC(=O)[C@H](CCCNC(=N)N)NC(=O)[C@H](CC(C)C)NC(=O)[C@H](Cc1ccccc1)NC(=O)[C@H](Cc1c[nH]cn1)NC(=O)[C@H](C)NC(=O)[C@H](CC(C)C)NC(=O)[C@H](CCCNC(=N)N)NC(=O)[C@H](CCC(N)=O)NC(=O)[C@@H](NC(=O)[C@H](C)NC(=O)[C@@H]1CSSC[C@H](NC(=O)[C@@H](N)CCCCNC(=O)COCCOCCNC(=O)CC[C@H](NC(=O)CCCCCCCCCCCCCCCCCCC(=O)O)C(=O)O)C(=O)N[C@@H](CC(N)=O)C(=O)N[C@@H]([C@@H](C)O)C(=O)N[C@@H](C)C(=O)N[C@@H]([C@@H](C)O)C(=O)N1)[C@@H](C)O)C(=O)N1CCC[C@H]1C(=O)N[C@@H](CO)C(=O)N[C@@H](CO)C(=O)N[C@H](C(=O)N[C@@H](CC(N)=O)C(=O)N[C@H](C(=O)NCC(=O)N1CCC[C@H]1C(=O)N[C@@H](CC(N)=O)C(=O)N[C@H](C(=O)N[C@@H](Cc1ccc(O)cc1)C(N)=O)[C@@H](C)O)C(C)C)[C@@H](C)O
notes: also called compound 68
B6: N^ε1-[2-[2-[2-[[(4S)-4-carboxy-4-(19-carboxynonadecanoylamino)butanoyl]amino]ethoxy]ethoxy]acetyl]-[Arg17,Pro21,Pro27,Pro34,His35]-h-amylin (peptide)
peptide: K([AEEA-γGlu-C20 diacid])CNTATCATQRLANFLRHSSPNFGAIPSSTNVGPHTY-NH2
modifications: disulfide 2-7; N-terminus assumed
SMILES: CC[C@H](C)[C@H](NC(=O)[C@H](C)NC(=O)CNC(=O)[C@H](Cc1ccccc1)NC(=O)[C@H](CC(N)=O)NC(=O)[C@@H]1CCCN1C(=O)[C@H](CO)NC(=O)[C@H](CO)NC(=O)[C@H](Cc1c[nH]cn1)NC(=O)[C@H](CCCNC(=N)N)NC(=O)[C@H](CC(C)C)NC(=O)[C@H](Cc1ccccc1)NC(=O)[C@H](CC(N)=O)NC(=O)[C@H](C)NC(=O)[C@H](CC(C)C)NC(=O)[C@H](CCCNC(=N)N)NC(=O)[C@H](CCC(N)=O)NC(=O)[C@@H](NC(=O)[C@H](C)NC(=O)[C@@H]1CSSC[C@H](NC(=O)[C@@H](N)CCCCNC(=O)COCCOCCNC(=O)CC[C@H](NC(=O)CCCCCCCCCCCCCCCCCCC(=O)O)C(=O)O)C(=O)N[C@@H](CC(N)=O)C(=O)N[C@@H]([C@@H](C)O)C(=O)N[C@@H](C)C(=O)N[C@@H]([C@@H](C)O)C(=O)N1)[C@@H](C)O)C(=O)N1CCC[C@H]1C(=O)N[C@@H](CO)C(=O)N[C@@H](CO)C(=O)N[C@H](C(=O)N[C@@H](CC(N)=O)C(=O)N[C@H](C(=O)NCC(=O)N1CCC[C@H]1C(=O)N[C@@H](Cc1c[nH]cn1)C(=O)N[C@H](C(=O)N[C@@H](Cc1ccc(O)cc1)C(N)=O)[C@@H](C)O)C(C)C)[C@@H](C)O
notes: also called compound 58

Numbered stars: 1 amine (or outer) side, 2 acyl side, 3 side chain; on linkers, the order of the positions; unused ones are H or OH. Bridge positions count the residues as written; N and C are the ends. Side chains are listed from the residue outwards. Ends that are not written are not given here. * marks the point of attachment. C20 diacid = O=C(O)CCCCCCCCCCCCCCCCCCC(=O)*; γGlu = O=C(O)[C@H](CCC(=O)[*:2])N[*:1]; AEEA = NCCOCCOCC(=O)O

The target of the experiment is T1, human amylin 3(a) receptor (human …). The experiment can be described thus: cell-based or functional assay.
Take B1: the “Ratio hCT/hAmylin funct. (hCTR EC50 over hAmylin-R EC50)” value came out at 22.5 and the “hAmylin-R funct. EC50 (pM)” value is 106 pM.
Take B2: the “Ratio hCT/hAmylin funct. (hCTR EC50 over hAmylin-R EC50)” value came to 17.4 and the “hAmylin-R funct. EC50 (pM)” value is 38 pM.
On the same counts, the results for B3 are 32.5 and 169 pM.
For B4 the same measures were 56.3 and 666 pM.
For B5 the same measures were 17.4 and 54 pM.
As to B6, the “Ratio hCT/hAmylin funct. (hCTR EC50 over hAmylin-R EC50)” value came to 21.9 and the “hAmylin-R funct. EC50 (pM)” value amounted to 47 pM.
